Blank lines part the entries; values can stand above or below the substance they belong to.
Key:
[1] = tested on: PlexA1; assay: morpholino-based PlexA1 knockdown in zebrafish, intersegmental vessels; assay type: in vivo; conditions: tg(kdrl:eGFP) zebrafish, 28 hours post fertilization, vs no injection or mismatch morpholino
Source text: We observed PlexA1 positive blood vessels in the tissue array of GBM samples (Figure 5A). […] To address this possibility we first used a transgenic zebra-fish model tg(kdrl:eGFP) highlighting the endothelial cells. This allowed us to assess the angiogenic activities in vivo by analyzing formation of intersegmental vessels (ISVs) after morpholino-based knockdown of the target. […] (Scale bar: 40 μm). […] Representative images of control, Plexin-A1 mismatch and […]1 knockdown embryos (plxna1MO) are shown 28 hours post fertilization (28hpf). […] (E) Live-monitoring of VEGF-induced HUVEC cell migration assay using the […] system (transwell assay). (F) Microphotographs illustrating the expression of PlexA1 in blood vessels of the chick chorioallontoic membrane (upper left picture). Microphotographs (middle and lower left pictures) and camera lucida drawing (middle and lower right pictures) showing representative fields of observation after 24 h incubation with VEGF (100 ng/ml, +vehicle) or […]1 (10^-7 M). The number of VEGF-induced new blood vessels is shown in the graph. For knockdown of PlexA1 in the zebra fish we used morpholino oligonucleotides described by. MO ([NT]) was injected at the one-cell stage. Animals ([…] incubated at 28.5°C for 5 hours before treatment with 1-phenyl-2-thiourea (PTU) to prevent pigment formation. […]

[2] = molecular target: Plexin-A1 (human (endogenous in U373MG and U118MG)) (UniProt Q9UIW2); assay: proximity ligation; in situ proximity ligation assay (Duo-link) on U373MG cells; MTP-PlexA1 (10^-7 M) added, NRP1/PlexA1 complexes counted against vehicle
[3] = molecular target: Plexin-A1 (human (endogenous in U373MG and U118MG)) (UniProt Q9UIW2); assay: proximity ligation; proximity ligation assay on tumor tissue sections of U118MG-Luc xenografts; mice treated with MTP-PlexA1 against control mice
[4] = molecular target: Plexin-A1 (human (endogenous in U373MG and U118MG)) (UniProt Q9UIW2); assay: co-IP; immunoprecipitation of PlexA1 from U373MG cells stimulated with Sema3A (100 ng/ml) or VEGF (100 ng/ml) with MTP-PlexA1 (10^-7 M); amount of co-precipitated NRP1 and PlexA4 against no peptide
[5] = tested on: NRP1/PlexA1 complexes; assay: in situ proximity ligation assay (Duo-link), NRP1/PlexA1 complexes in U373MG cells; assay type: cell-based, human; conditions: specificity control, MTP-Neu at 10–6 M
Description: “Zip sequence” is the positive control of dimerization and “Empty” is the negative control of this bacterial system. (C, D) SPR assay (Biacore) to quantify MTP-PlexA1 interactions with PLexA1, NRP1 and VEGFR2 TMDs. (E) Proximity ligation assay showing that MTP-PlexA1 (10^−7 M) decreases the number of PLexA1-NRP1 interactions (green dots) in U373MG cells (scale bar = 20 μm).
Additional specificity controls were performed using a mutated version of MTP-PlexA1 (in which 3 glycines of the GxxxGxxxG motif were replaced by 3 valines or MTP-Neu, an anti-breast cancer peptide known to not interact with PlexA1) as described in Supplementary Figure S2. […] Similar results were obtained when cells were exposed to VEGF (39.4% NRP1 and 35.4% PlexA4, Figure 4B).
Supplementary Figure S2: Specificity controls were performed using a mutated version of MTP-PlexA1 […]
LVIVAVLIAYKRK). Such mutations have been previously shown to be sufficient to lose activity of NRP1 antagonist membrane domain targeting peptide (Roth et al., 2008 Mol Biol Cell). We also used MTP-Neu, a transmembrane domain targeting peptide known to […]
M, a concentration previously shown to produce maximal antagonist activity of the peptide. Additionally, we also repeated the in vitro angiogenic assay on matrigel using HUVEC cells. […]
to MTP-PlexA1. These experiments confirmed the specificity of MTP-PlexA1.
(1 picture or pasted object on this page, not shown here)

[6] = tested on: NRP1 or PlexA1; conditions: ref Arpel et al., 2014, Cell Reports; cited from earlier work
Source text: Such mutations have been previously shown to be sufficient to lose activity of NRP1 antagonist membrane domain targeting peptide (Roth et al., 2008 Mol Biol Cell).

Sequence of UniProt Q9UIW2 (Q9UIW2 27-1896): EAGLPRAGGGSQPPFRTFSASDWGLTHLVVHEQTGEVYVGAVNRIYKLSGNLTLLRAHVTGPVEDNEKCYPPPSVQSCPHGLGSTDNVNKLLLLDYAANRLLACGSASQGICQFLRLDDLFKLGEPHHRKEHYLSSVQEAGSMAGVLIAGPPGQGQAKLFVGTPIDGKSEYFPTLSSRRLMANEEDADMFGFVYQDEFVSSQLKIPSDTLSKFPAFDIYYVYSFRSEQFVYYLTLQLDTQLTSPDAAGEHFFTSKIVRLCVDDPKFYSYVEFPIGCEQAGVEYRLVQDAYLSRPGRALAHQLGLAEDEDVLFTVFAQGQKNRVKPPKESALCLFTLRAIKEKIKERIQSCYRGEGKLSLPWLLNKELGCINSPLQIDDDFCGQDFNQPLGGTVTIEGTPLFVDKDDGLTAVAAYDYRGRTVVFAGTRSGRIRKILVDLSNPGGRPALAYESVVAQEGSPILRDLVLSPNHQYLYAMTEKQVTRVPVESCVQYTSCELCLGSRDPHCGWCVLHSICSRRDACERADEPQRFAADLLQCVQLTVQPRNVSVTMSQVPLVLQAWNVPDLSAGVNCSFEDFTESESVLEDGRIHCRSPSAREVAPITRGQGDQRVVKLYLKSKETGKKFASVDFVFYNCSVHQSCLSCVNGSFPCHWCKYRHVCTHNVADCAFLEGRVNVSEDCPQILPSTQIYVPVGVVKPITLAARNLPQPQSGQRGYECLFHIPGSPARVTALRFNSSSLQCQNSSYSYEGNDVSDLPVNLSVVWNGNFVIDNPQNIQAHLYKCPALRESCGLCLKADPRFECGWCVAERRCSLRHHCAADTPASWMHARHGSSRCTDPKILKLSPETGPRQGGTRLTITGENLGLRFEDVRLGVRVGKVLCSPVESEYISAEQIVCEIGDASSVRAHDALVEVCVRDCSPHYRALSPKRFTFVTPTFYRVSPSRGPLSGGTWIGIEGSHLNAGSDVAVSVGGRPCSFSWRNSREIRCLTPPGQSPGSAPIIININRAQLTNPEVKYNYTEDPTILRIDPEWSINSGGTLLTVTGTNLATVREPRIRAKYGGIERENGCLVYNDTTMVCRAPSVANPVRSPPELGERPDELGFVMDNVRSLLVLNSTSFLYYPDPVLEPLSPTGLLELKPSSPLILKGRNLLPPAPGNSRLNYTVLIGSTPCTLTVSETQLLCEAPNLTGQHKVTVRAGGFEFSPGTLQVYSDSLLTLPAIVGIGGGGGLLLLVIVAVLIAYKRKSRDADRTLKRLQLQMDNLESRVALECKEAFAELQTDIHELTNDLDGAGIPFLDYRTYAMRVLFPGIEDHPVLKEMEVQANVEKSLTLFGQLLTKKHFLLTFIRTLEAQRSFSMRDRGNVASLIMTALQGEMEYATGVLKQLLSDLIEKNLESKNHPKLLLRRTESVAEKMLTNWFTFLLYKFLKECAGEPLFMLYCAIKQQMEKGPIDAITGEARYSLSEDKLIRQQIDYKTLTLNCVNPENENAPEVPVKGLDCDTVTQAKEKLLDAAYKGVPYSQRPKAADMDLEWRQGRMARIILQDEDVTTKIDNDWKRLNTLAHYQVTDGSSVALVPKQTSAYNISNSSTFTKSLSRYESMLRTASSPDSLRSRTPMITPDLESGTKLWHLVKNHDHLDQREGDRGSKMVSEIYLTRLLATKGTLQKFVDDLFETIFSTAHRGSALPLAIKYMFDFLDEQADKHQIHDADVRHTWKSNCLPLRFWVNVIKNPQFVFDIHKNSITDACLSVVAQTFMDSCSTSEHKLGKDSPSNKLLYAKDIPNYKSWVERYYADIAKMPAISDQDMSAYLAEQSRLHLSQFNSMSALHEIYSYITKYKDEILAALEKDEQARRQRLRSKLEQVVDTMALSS

Substance: 5′-GCCACATATCTGCACTGGTCCTTGA-3′ (all phosphorodiamidate morpholino (PMO)) [morpholino sequence against PlexA1, morpholino oligonucleotide for knockdown of PlexA1 in the zebra fish]
- abnormal angiogenic sprouts in intersegmental vessels [1]: significant number of abnormal angiogenic sprouts

- percent reduction of NRP1/PlexA1 complexes (proximity ligation, U373MG) [2]: 29.4%
- percent change of PlexA1-NRP1 interactions (proximity ligation, tumor sections) [3]: -48.5%
- percent reduction of NRP1 co-immunoprecipitated with PlexA1 (VEGF) [4]: 39.4%
- percent reduction of PlexA4 co-immunoprecipitated with PlexA1 (VEGF) [4]: 35.4%
Substance: MTP-PlexA1, synthetic transmembrane peptide mimicking the TMD of PlexA1

Substance: TFIIATVEGVLLFLILVVVVGILIKRR [MTP-Neu, reference compound]
- disruption of NRP1/PlexA1 dimers [5]: unrelated MTP-Neu peptide
- interaction with NRP1 or PlexA1 [6]: not interact with NRP1 or PlexA1

Source: PMC5295395, “Inhibition of PlexA1-mediated brain tumor growth and tumor-associated angiogenesis using a transmembrane domain targeting peptide” (Oncotarget, 2016)
